Test results: patent publication US20080227848

What was measured:
2-5A-d-R peptide = biological target: T1, 2-5A-d-R peptide
T1 chain: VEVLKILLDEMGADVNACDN

[1] = biological target: T2, CAD, HIF C-terminal transactivation domain standard peptide
T2 chain: DESGLPQLTSYDCEVNAPI

FEM-1 21 mer peptide = biological target: T3, FEM-1 21 mer peptide
T3 chain: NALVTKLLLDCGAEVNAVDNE

FGIF peptide = biological target: T4, FGIF peptide
T4 chain: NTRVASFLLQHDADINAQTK

GABPbeta peptide = biological target: T5, GABPbeta peptide
T5 chain: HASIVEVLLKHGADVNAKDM

[2] = biological target: T6, GST HIF-1α 786-826, Q16665; settings: scale: % activity relative to GST HIF-1α 786-826
T6 chain: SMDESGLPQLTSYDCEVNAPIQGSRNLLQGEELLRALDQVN

[3] = biological target: GST p105 ARD N to A mutant; settings: scale: % activity relative to GST HIF-1α 786-826
GST p105 ARD = biological target: T7, GST p105 ARD; settings: scale: % activity relative to GST HIF-1α 786-826
T7 chain: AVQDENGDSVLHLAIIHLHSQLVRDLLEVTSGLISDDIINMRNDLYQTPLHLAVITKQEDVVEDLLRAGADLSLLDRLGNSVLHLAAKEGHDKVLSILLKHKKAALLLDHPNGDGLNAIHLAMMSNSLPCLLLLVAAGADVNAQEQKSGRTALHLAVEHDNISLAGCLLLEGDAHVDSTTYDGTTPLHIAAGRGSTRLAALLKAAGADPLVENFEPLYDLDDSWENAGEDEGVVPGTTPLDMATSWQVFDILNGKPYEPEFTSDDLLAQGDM

Gankyrin/p28-II peptide = biological target: T8, Gankyrin/p28-II peptide
T8 chain: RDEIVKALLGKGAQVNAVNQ

IkBa 21 mer peptide = biological target: T9, IkBa 21 mer peptide
T9 chain: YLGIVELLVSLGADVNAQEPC

[4] = biological target: T10, IkappaB-alpha, recombinant protein, P25963
T10 chain: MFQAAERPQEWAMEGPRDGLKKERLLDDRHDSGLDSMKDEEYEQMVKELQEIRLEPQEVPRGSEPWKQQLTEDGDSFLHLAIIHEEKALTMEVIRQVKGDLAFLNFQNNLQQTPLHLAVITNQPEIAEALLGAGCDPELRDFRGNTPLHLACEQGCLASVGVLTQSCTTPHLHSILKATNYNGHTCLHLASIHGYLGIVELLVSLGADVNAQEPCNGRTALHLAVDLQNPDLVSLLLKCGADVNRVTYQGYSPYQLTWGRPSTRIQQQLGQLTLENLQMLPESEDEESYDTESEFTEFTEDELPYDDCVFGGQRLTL

M110 peptide = biological target: T11, M110 peptide
T11 chain: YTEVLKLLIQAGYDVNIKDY

Myotrophin peptide = biological target: T12, Myotrophin peptide
T12 chain: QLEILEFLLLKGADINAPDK

Tankyrase 1/2 peptide = biological target: T13, Tankyrase 1/2 peptide
T13 chain: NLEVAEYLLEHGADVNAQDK

p105 21 mer peptide = biological target: T14, p105 21 mer peptide
T14 chain: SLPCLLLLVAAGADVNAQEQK

[5] = biological target: T15, p105 ARD (ankyrin repeat domain of p105, amino acid residues 537-809), free form; settings: scale: % activity relative to GST HIF-1α 786-826
T15 chain: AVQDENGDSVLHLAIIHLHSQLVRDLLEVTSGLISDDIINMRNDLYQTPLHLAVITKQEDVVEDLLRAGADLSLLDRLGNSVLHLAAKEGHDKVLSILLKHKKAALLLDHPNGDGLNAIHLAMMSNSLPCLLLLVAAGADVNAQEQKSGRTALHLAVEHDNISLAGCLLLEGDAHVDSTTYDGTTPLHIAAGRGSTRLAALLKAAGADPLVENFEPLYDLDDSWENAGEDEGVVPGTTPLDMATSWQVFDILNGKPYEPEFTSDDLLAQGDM

p19-INK-4d peptide = biological target: T16, p19-INK-4d peptide
T16 chain: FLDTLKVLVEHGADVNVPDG

[6] = scale: % activity relative to GST HIF-1α 786-826

B1: factor inhibiting hypoxia-inducible factor (FIH), highly purified recombinant (protein)
chain: MAATAAEAVASGSGEPREEAGALGPAWDESQLRSYSFPTRPIPRLSQSDPRAEELIENEEPVVLTDTNLVYPALKWDLEYLQENIGNGDFSVYSASTHKFLYYDEKKMANFQNFKPRSNREEMKFHEFVEKLQDIQQRGGEERLYLQQTLNDTVGRKIVMDFLGFNWNWINKQQGKRGWGQLTSNLLLIGMEGNVTPAHYDEQQNFFAQIKGYKRCILFPPDQFECLYPYPVHHPCDRQSQVDFDNPDYERFPNFQNVVGYETVVGPGDVLYIPMYWWHHIESLLNGGITITVNFWYKGAPTPKRIEYPLKAHQKVAIMRNIEKMLGEALGNPQEVGPLLNTMIKGRYN
**Q.** What does the source list for B1?
**A.** Activity + FIH (relative to synthetic HIF1alphaCAD) (relative to synthetic HIF1alphaCAD) (2-5A-d-R peptide): 27.8; Hydroxylation of peptide observed by LC-MS analysis (2-5A-d-R peptide): Yes; Activity + FIH (relative to synthetic HIF1alphaCAD) (relative to synthetic HIF1alphaCAD) [1]: 100; Hydroxylation of peptide observed by LC-MS analysis [1]: Yes; % activity relative to GST HIF-1α 786-826 (decarboxylation of 2OG) [1, 6]: 75; 2D-NMR spectra of the peptide after incubation with FIH (FEM-1 21 mer peptide): consistent with asparaginyl hydroxylation; direct peptide substrate hydroxylation by LC-MS (FEM-1 21 mer peptide): both the FEM-1 and IkappaB-alpha peptides were observed to be hydroxylated under standard assay conditions; % activity relative to GST HIF-1α 786-826 (decarboxylation of 2OG) (FEM-1 21 mer peptide; [6]): 89; Activity + FIH (relative to synthetic HIF1alphaCAD) (relative to synthetic HIF1alphaCAD) (FGIF peptide): 168; Hydroxylation of peptide observed by LC-MS analysis (FGIF peptide): Yes; Activity + FIH (relative to synthetic HIF1alphaCAD) (relative to synthetic HIF1alphaCAD) (GABPbeta peptide): 107; Hydroxylation of peptide observed by LC-MS analysis (GABPbeta peptide): Yes; % activity relative to GST HIF-1α 786-826 (decarboxylation of 2OG) [2]: 100; % activity relative to GST HIF-1α 786-826 (decarboxylation of 2OG) [3]: 12; % activity relative to GST HIF-1α 786-826 (decarboxylation of 2OG) (GST p105 ARD): 129; Activity + FIH (relative to synthetic HIF1alphaCAD) (relative to synthetic HIF1alphaCAD) (Gankyrin/p28-II peptide): 116; Hydroxylation of peptide observed by LC-MS analysis (Gankyrin/p28-II peptide): Yes; direct peptide substrate hydroxylation by LC-MS (IkBa 21 mer peptide): both the FEM-1 and IkappaB-alpha peptides were observed to be hydroxylated under standard assay conditions; % activity relative to GST HIF-1α 786-826 (decarboxylation of 2OG) (IkBa 21 mer peptide; [6]): 111; MALDI-TOF mass spectrometry of tryptic fragments after incubation with FIH [4]: The results demonstrated hydroxylation of the fragment; % activity relative to GST HIF-1α 786-826 (decarboxylation of 2OG) [4, 6]: 144; Activity + FIH (relative to synthetic HIF1alphaCAD) (relative to synthetic HIF1alphaCAD) (M110 peptide): 122; Hydroxylation of peptide observed by LC-MS analysis (M110 peptide): Yes; Activity + FIH (relative to synthetic HIF1alphaCAD) (relative to synthetic HIF1alphaCAD) (Myotrophin peptide): 154; Hydroxylation of peptide observed by LC-MS analysis (Myotrophin peptide): Yes; Activity + FIH (relative to synthetic HIF1alphaCAD) (relative to synthetic HIF1alphaCAD) (Tankyrase 1/2 peptide): 107; Hydroxylation of peptide observed by LC-MS analysis (Tankyrase 1/2 peptide): Yes; site of hydroxylation by LC-MS (Tankyrase 1/2 peptide): LC-MS analyses located the site of hydroxylation to the internal asparagine residue in the case of tankyrase; 2D-NMR spectra of the peptide after incubation with FIH (p105 21 mer peptide): consistent with asparaginyl hydroxylation; % activity relative to GST HIF-1α 786-826 (decarboxylation of 2OG) (p105 21 mer peptide; [6]): 100; % activity relative to GST HIF-1α 786-826 (decarboxylation of 2OG) [5]: 164; MALDI ToF mass spectrometry of the tryptic digest after incubation with FIH (p105 ARD L668K mutant): following incubation with FIH, a peak at 1,542 Da appears in the spectrum that corresponds to the hydroxylated 1,526 Da peptide i.e. +16 Da; Activity + FIH (relative to synthetic HIF1alphaCAD) (relative to synthetic HIF1alphaCAD) (p19-INK-4d peptide): 124; Hydroxylation of peptide observed by LC-MS analysis (p19-INK-4d peptide): Yes
